Patent US20170319648A1
Positions of bridges follow the written chain, without caps; N, C: chain ends. Non-standard residues stand in square brackets, D forms with d. No end group written: not given here. hCys = N[C@@H](CCS)C(=O)O; Orn = NCCC[C@H](N)C(=O)O; Dab = NCC[C@H](N)C(=O)O

Target: TEAD
Test: IC50 for TEAD binding; method not named in the example (TR-FRET test is the filing's screening method)

Chain of TEAD (P28347 209-426): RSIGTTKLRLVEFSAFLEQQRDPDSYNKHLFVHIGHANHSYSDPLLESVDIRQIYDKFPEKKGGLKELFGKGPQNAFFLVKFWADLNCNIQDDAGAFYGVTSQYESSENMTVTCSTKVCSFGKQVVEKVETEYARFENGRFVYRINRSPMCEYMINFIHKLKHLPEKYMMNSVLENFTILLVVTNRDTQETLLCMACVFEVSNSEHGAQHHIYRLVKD

IC50 [nM]	Binder
28	VPF[hCys]LR[Dab]LPDSFCKPPE (disulfide 4-13) [polypeptide of SEQ ID NO.: 6 (VPF(Hcy)LR(Dab)…)]
43	VPF[hCys]LR[Orn]LPDSFCKPPE (disulfide 4-13) [polypeptide of SEQ ID NO.: 5 (VPF(Hcy)LR(Orn)…)]
